Measured values reported in the supplement of paper PMC5998384.

Assays:
[1] = system: HeLa Kyoto; assay: solubility in G1/S (NP-40 vs SDS abundance) (log2 ratio); higher = more soluble; conditions: cell cycle stage: G1/S
[2] = system: HeLa Kyoto; assay: thermal stability score vs G1/S (z-score of summed log2 fold changes over temperatures); higher = more thermally stable than in G1/S
[3] = system: HeLa Kyoto; assay: melting temperature (median over replicates), in situ; higher = more thermally stable
[4] = system: HeLa Kyoto; assay: solubility change mitosis vs G1/S (difference of NP-40 vs SDS log2 ratios) (log2 ratio difference); higher = more soluble in mitosis
[5] = cell cycle stage: early G1 (4.5 h after nocodazole release)
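For melting temperature (median over replicates), in situ in this document: HeLa Kyoto cells synchronized by double thymidine or nocodazole block, proteins quantified by TMT10plex mass spectrometry, three independent biological replicates.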
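For solubility change mitosis vs G1/S (difference of NP-40 vs SDS log2 ratios) in this document: synchronized HeLa Kyoto cells (double thymidine block for G1/S, nocodazole release for mitosis), protein amounts in NP-40 versus SDS lysates quantified by mass spectrometry, three biological replicates.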
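For solubility in G1/S (NP-40 vs SDS abundance) in this document: HeLa Kyoto cells arrested at G1/S by double thymidine block, proteins quantified by TMT10plex mass spectrometry in mild NP-40 versus SDS extracts, three biological replicates.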
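For thermal stability score vs G1/S (z-score of summed log2 fold changes over temperatures) in this document: synchronized HeLa Kyoto cells, proteins quantified by TMT10plex mass spectrometry, three biological replicates, mitosis taken 0.5 h after nocodazole release, G1/S directly after double thymidine block.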

Sequence	solubility in G1/S (log2) [1]	thermal stability score [2, 5]	thermal stability score ([2]; cell cycle stage: mitosis)	melting temperature ([3]; cell cycle stage: G1/S)	melting temperature ([3]; cell cycle stage: mitosis)	solubility change mitosis (log2) [4]
MSWESGAGPGLGSQGMDLVWSAWYGKCVKGKGSLPLSAHGIVVAWLSRAEWDQVTVYLFCDDHKLQRYALNRITVWRSRSGNELPLAVASTADLIRCKLLDVTGGLGTDELRLLYGMALVRFVNLISERKTKFAKVPLKCLAQEVNIPDWIVDLRHELTHKKMPHINDCRRGCYFVLDWLQKTYWCRQLENSLRETWELEEFREGIEEEDQEEDKNIVVDDITEQKPEPQDDGKSTESDVKADGDSKGSEEVDSHCKKALSHKELYERARELLVSYEEEQFTVLEKFRYLPKAIKAWNNPSPRVECVLAELKGVTCENREAVLDAFLDDGFLVPTFEQLAALQIEYEDGQTEVQRGEGTDPKSHKNVDLNDVLVPKPFSQFWQPLLRGLHSQNFTQALLERMLSELPALGISGIRPTYILRWTVELIVANTKTGRNARRFSAGQWEARRGWRLFNCSASLDWPRMVESCLGSPCWASPQLLRIIFKAMGQGLPDEEQEKLLRICSIYTQSGENSLVQEGSEASPIGKSPYTLDSLYWSVKPASSSFGSEAKAQQQEEQGSVNDVKEEEKEEKEVLPDQVEEEEENDDQEEEEEDEDDEDDEEEDRMEVGPFSTGQESPTAENARLLAQKRGALQGSAWQVSSEDVRWDTFPLGRMPGQTEDPAELMLENYDTMYLLDQPVLEQRLEPSTCKTDTLGLSCGVGSGNCSNSSSSNFEGLLWSQGQLHGLKTGLQLF [LAS1L]	-1.4	1.98	2.81	49.7 °C	51 °C	0.658
MAALRVLLSCVRGPLRPPVRCPAWRPFASGANFEYIIAEKRGKNNTVGLIQLNRPKALNALCDGLIDELNQALKTFEEDPAVGAIVLTGGDKAFAAGADIKEMQNLSFQDCYSSKFLKHWDHLTQVKKPVIAAVNGYAFGGGCELAMMCDIIYAGEKAQFAQPEILIGTIPGAGGTQRLTRAVGKSLAMEMVLTGDRISAQDAKQAGLVSKICPVETLVEEAIQCAEKIASNSKIVVAMAKESVNAAFEMTLTEGSKLEKKLFYSTFATDDRKEGMTAFVEKRKANFKDQ [ECHS1]	0.518	-1.11	-1.89	52.8 °C	53.3 °C	0.0593
MTANRLAESLLALSQQEELADLPKDYLLSESEDEGDNDGERKHQKLLEAISSLDGKNRRKLAERSEASLKVSEFNVSSEGSGEKLVLADLLEPVKTSSSLATVKKQLSRVKSKKTVELPLNKEEIERIHREVAFNKTAQVLSKWDPVVLKNRQAEQLVFPLEKEEPAIAPIEHVLSGWKARTPLEQEIFNLLHKNKQPVTDPLLTPVEKASLRAMSLEEAKMRRAELQRARALQSYYEAKARREKKIKSKKYHKVVKKGKAKKALKEFEQLRKVNPAAALEELEKIEKARMMERMSLKHQNSGKWAKSKAIMAKYDLEARQAMQEQLSKNKELTQKLQVASESEEEEGGTEDVEELLVPDVVNEVQMNADGPNPWMLRSCTSDTKEAATQEDPEQLPELEAHGVSESEGEERPVAEEEILLREFEERRSLRKRSELSQDAEPAGSQETKDSGSQEVLSELRVLSQKLKENHQSRKQKASSEGTIPQVQREEPAPEEEEPLLLQRPERVQTLEELEELGKEECFQNKELPRPVLEGQQSERTPNNRPDAPKEKKKKEQMIDLQNLLTTQSPSVKSLAVPTIEELEDEEERNHRQMIKEAFAGDDVIRDFLKEKREAVEASKPKDVDLTLPGWGEWGGVGLKPSAKKRRRFLIKAPEGPPRKDKNLPNVIINEKRNIHAAAHQVRVLPYPFTHHWQFERTIQTPIGSTWNTQRAFQKLTTPKVVTKPGHIINPIKAEDVGYRSSSRSDLSVIQRNPKRITTRHKKQLKKCSVD [UTP14A]	-1.64	-4.25	-2.2	53 °C	52.8 °C	0.895
MRRLNRKKTLSLVKELDAFPKVPESYVETSASGGTVSLIAFTTMALLTIMEFSVYQDTWMKYEYEVDKDFSSKLRINIDITVAMKCQYVGADVLDLAETMVASADGLVYEPTVFDLSPQQKEWQRMLQLIQSRLQEEHSLQDVIFKSAFKSTSTALPPREDDSSQSPNACRIHGHLYVNKVAGNFHITVGKAIPHPRGHAHLAALVNHESYNFSHRIDHLSFGELVPAIINPLDGTEKIAIDHNQMFQYFITVVPTKLHTYKISADTHQFSVTERERIINHAAGSHGVSGIFMKYDLSSLMVTVTEEHMPFWQFFVRLCGIVGGIFSTTGMLHGIGKFIVEIICCRFRLGSYKPVNSVPFEDGHTDNHLPLLENNTH [ERGIC2]	-0.0386	-2.27	-7.02	54.8 °C	53.8 °C	-0.216
MQPWHGKAMQRASEAGATAPKASARNARGAPMDPTESPAAPEAALPKAGKFGPARKSGSRQKKSAPDTQERPPVRATGARAKKAPQRAQDTQPSDATSAPGAEGLEPPAAREPALSRAGSCRQRGARCSTKPRPPPGPWDVPSPGLPVSAPILVRRDAAPGASKLRAVLEKLKLSRDDISTAAGMVKGVVDHLLLRLKCDSAFRGVGLLNTGSYYEHVKISAPNEFDVMFKLEVPRIQLEEYSNTRAYYFVKFKRNPKENPLSQFLEGEILSASKMLSKFRKIIKEEINDIKDTDVIMKRKRGGSPAVTLLISEKISVDITLALESKSSWPASTQEGLRIQNWLSAKVRKQLRLKPFYLVPKHAKEGNGFQEETWRLSFSHIEKEILNNHGKSKTCCENKEEKCCRKDCLKLMKYLLEQLKERFKDKKHLDKFSSYHVKTAFFHVCTQNPQDSQWDRKDLGLCFDNCVTYFLQCLRTEKLENYFIPEFNLFSSNLIDKRSKEFLTKQIEYERNNEFPVFDEF [MB21D1]	-1.72	-0.379	1.19	52.6 °C	53.9 °C	-0.155
MAESIIIRVQSPDGVKRITATKRETAATFLKKVAKEFGFQNNGFSVYINRNKTGEITASSNKSLNLLKIKHGDLLFLFPSSLAGPSSEMETSVPPGFKVFGAPNVVEDEIDQYLSKQDGKIYRSRDPQLCRHGPLGKCVHCVPLEPFDEDYLNHLEPPVKHMSFHAYIRKLTGGADKGKFVALENISCKIKSGCEGHLPWPNGICTKCQPSAITLNRQKYRHVDNIMFENHTVADRFLDFWRKTGNQHFGYLYGRYTEHKDIPLGIRAEVAAIYEPPQIGTQNSLELLEDPKAEVVDEIAAKLGLRKVGWIFTDLVSEDTRKGTVRYSRNKDTYFLSSEECITAGDFQNKHPNMCRLSPDGHFGSKFVTAVATGGPDNQVHFEGYQVSNQCMALVRDECLLPCKDAPELGYAKESSSEQYVPDVFYKDVDKFGNEITQLARPLPVEYLIIDITTTFPKDPVYTFSISQNPFPIENRDVLGETQDFHSLATYLSQNTSSVFLDTISDFHLLLFLVTNEVMPLQDSISLLLEAVRTRNEELAQTWKRSEQWATIEQLCSTVGGQLPGLHEYGAVGGSTHTATAAMWACQHCTFMNQPGTGHCEMCSLPRT [NPLOC4]	-0.00908	0.478	-0.273	51.8 °C	52 °C	-0.119
MVLSELAARLNCAEYKNWVKAGHCLLLLRSCLQGFVGREVLSFHRGLLAAAPGLGPRAVCRGGSRCSPRARQFQPQCQVCAEWKREILRHHVNRNGDVHWGNCRPGRWPVDAWEVAKAFMPRGLADKQGPEECDAVALLSLINSCDHFVVDRKKVTEVIKCRNEIMHSSEMKVSSTWLRDFQMKIQNFLNEFKNIPEIVAVYSRIEQLLTSDWAVHIPEEDQRDGCECEMGTYLSESQVNEIEMQLLKEKLQEIYLQAEEQEVLPEELSNRLEVVKEFLRNNEDLRNGLTEDMQKLDSLCLHQKLDSQEPGRQTPDRKA [CXORF38]	0.0857	-0.304	2.18	52.5 °C	52.1 °C	-0.0263
MAPRRVRSFLRGLPALLLLLLFLGPWPAASHGGKYSREKNQPKPSPKRESGEEFRMEKLNQLWEKAQRLHLPPVRLAELHADLKIQERDELAWKKLKLDGLDEDGEKEARLIRNLNVILAKYGLDGKKDARQVTSNSLSGTQEDGLDDPRLEKLWHKAKTSGKFSGEELDKLWREFLHHKEKVHEYNVLLETLSRTEEIHENVISPSDLSDIKGSVLHSRHTELKEKLRSINQGLDRLRRVSHQGYSTEAEFEEPRVIDLWDLAQSANLTDKELEAFREELKHFEAKIEKHNHYQKQLEIAHEKLRHAESVGDGERVSRSREKHALLEGRTKELGYTVKKHLQDLSGRISRARHNEL [LRPAP1]	0.724	2.72	-0.375	55.3 °C	54.1 °C	-0.0876
MAALLRRLLQRERPSAASGRPVGRREANLGTDAGVAVRVRFAPSPTGFLHLGGLRTALYNYIFAKKYQGSFILRLEDTDQTRVVPGAAENIEDMLEWAGIPPDESPRRGGPAGPYQQSQRLELYAQATEALLKTGAAYPCFCSPQRLELLKKEALRNHQTPRYDNRCRNMSQEQVAQKLAKDPKPAIRFRLEQVVPAFQDLVYGWNRHEVASVEGDPVIMKSDGFPTYHLACVVDDHHMGISHVLRGSEWLVSTAKHLLLYQALGWQPPHFAHLPLLLNRDGSKLSKRQGDVFLEHFAADGFLPDSLLDIITNCGSGFAENQMGRTLPELITQFNLTQVTCHSALLDLEKLPEFNRLHLQRLVSNESQRRQLVGKLQVLVEEAFGCQLQNRDVLNPVYVERILLLRQGHICRLQDLVSPVYSYLWTRPAVGRAQLDAISEKVDVIAKRVLGLLERSSMSLTQDMLNGELKKLSEGLEGTKYSNVMKLLRMALSGQQQGPPVAEMMLALGPKEVRERIQKVVSS [EARS2]	0.363	-0.077	1.7	49.2 °C	49.5 °C	-0.0812
MDTEGFGELLQQAEQLAAETEGISELPHVERNLQEIQQAGERLRSRTLTRTSQETADVKASVLLGSRGLDISHISQRLESLSAATTFEPLEPVKDTDIQGFLKNEKDNALLSAIEESRKRTFGMAEEYHRESMLVEWEQVKQRILHTLLASGEDALDFTQESEPSYISDVGPPGRSSLDNIEMAYARQIYIYNEKIVNGHLQPNLVDLCASVAELDDKSISDMWTMVKQMTDVLLTPATDALKNRSSVEVRMEFVRQALAYLEQSYKNYTLVTVFGNLHQAQLGGVPGTYQLVRSFLNIKLPAPLPGLQDGEVEGHPVWALIYYCMRCGDLLAASQVVNRAQHQLGEFKTWFQEYMNSKDRRLSPATENKLRLHYRRALRNNTDPYKRAVYCIIGRCDVTDNQSEVADKTEDYLWLKLNQVCFDDDGTSSPQDRLTLSQFQKQLLEDYGESHFTVNQQPFLYFQVLFLTAQFEAAVAFLFRMERLRCHAVHVALVLFELKLLLKSSGQSAQLLSHEPGDPPCLRRLNFVRLLMLYTRKFESTDPREALQYFYFLRDEKDSQGENMFLRCVSELVIESREFDMILGKLENDGSRKPGVIDKFTSDTKPIINKVASVAENKGLFEEAAKLYDLAKNADKVLELMNKLLSPVVPQISAPQSNKERLKNMALSIAERYRAQGISANKFVDSTFYLLLDLITFFDEYHSGHIDRAFDIIERLKLVPLNQESVEERVAAFRNFSDEIRHNLSEVLLATMNILFTQFKRLKGTSPSSSSRPQRVIEDRDSQLRSQARTLITFAGMIPYRTSGDTNARLVQMEVLMN [NUP93]	-0.149	-3.26	-4.55	51.9 °C	48.3 °C	0.117
